Assay results taken from patent publication US20150344570A1 (published 2015).

T1: FcγRIIa R (human, UniProt P12318 34-217)
T1 construct: extracellular domain; also called FcgRIIa R; FcγRIIa type R; not shown: His tag at the C terminus
T1 sequence (looked up): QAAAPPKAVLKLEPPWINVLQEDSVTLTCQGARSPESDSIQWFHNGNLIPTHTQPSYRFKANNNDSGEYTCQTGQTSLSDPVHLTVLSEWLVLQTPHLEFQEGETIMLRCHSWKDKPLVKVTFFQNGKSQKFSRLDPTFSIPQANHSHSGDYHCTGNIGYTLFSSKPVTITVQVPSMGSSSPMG

T2: FcγRIIb extracellular domain with C-terminal His tag (human, UniProt P31994 43-217)
T2 construct: extracellular domain; also called FcgRIIb; CD32B; not shown: His tag at the C terminus
T2 sequence (looked up): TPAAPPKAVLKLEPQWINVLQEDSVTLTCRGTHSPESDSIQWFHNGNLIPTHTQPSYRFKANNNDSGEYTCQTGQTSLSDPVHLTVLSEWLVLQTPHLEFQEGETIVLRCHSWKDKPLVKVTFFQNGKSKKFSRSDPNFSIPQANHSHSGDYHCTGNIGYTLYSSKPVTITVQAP

T3: FcγRIIb (human, UniProt P31994 43-217)
T3 construct: extracellular domain; also called FcgRIIb; 2b; not shown: His tag at the C terminus
T3 sequence (looked up): T2 sequence (looked up)

B1: GpH7-A5/GpH7-B3 variant P238_01G/GpL16-k0 (antibody, human IgG1, kappa)
heavy 1: not shown
heavy 2: not shown
light: DIVMTQSPLSLPVTPGEPASISCQASESLVHSNRNTYLHWYLQKPGQSPQLLIYKVSNRFSGVPDRFSGSGSGTDFTLKISRVEAEDVGVYYCSQNTHVPPTFGQGTKVEIERTVAAPSVFIFPPSDEQLKSGTASVVCLLNNFYPREAKVQWKVDNALQSGNSQESVTEQDSKDSTYSLSSTLTLSKADYEKHKVYACEVTHQGLSSPVTKSFNRGEC
notes: Heterodimerized anti-glypican-3 IgG1; mutation in one H chain only; also called He Ab
B2: GpH7-A5/GpH7-B3 variant G237_14T/GpL16-k0 (antibody, human IgG1, kappa)
heavy 1: not shown
heavy 2: not shown
light: B1 light
notes: as for B1
B3: GpH7-A5/GpH7-B3 variant D265_01G/GpL16-k0 (antibody, human IgG1, kappa)
heavy 1: not shown
heavy 2: not shown
light: B1 light
notes: as for B1
B4: GpH7-A5/GpH7-B3 variant D265_04F/GpL16-k0 (antibody, human IgG1, kappa)
heavy 1: not shown
heavy 2: not shown
light: B1 light
notes: as for B1
B5: GpH7-A5/GpH7-B3 variant G236_19Q/GpL16-k0 (antibody, human IgG1, kappa)
heavy 1: not shown
heavy 2: not shown
light: B1 light
notes: as for B1
B6: GpH7-A5/GpH7-B3 variant D265_02A/GpL16-k0 (antibody, human IgG1, kappa)
heavy 1: not shown
heavy 2: not shown
light: B1 light
notes: as for B1
B7: GpH7-A5/GpH7-B3 variant P238_18N/GpL16-k0 (antibody, human IgG1, kappa)
heavy 1: not shown
heavy 2: not shown
light: B1 light
notes: as for B1
B8: GpH7-A5/GpH7-B3 variant G236_16H/GpL16-k0 (antibody, human IgG1, kappa)
heavy 1: not shown
heavy 2: not shown
light: B1 light
notes: as for B1
B9: GpH7-A5/GpH7-B3 variant S239_11K/GpL16-k0 (antibody, human IgG1, kappa)
heavy 1: not shown
heavy 2: not shown
light: B1 light
notes: as for B1
B10: GpH7-A5/GpH7-B3 variant D265_06M/GpL16-k0 (antibody, human IgG1, kappa)
heavy 1: not shown
heavy 2: not shown
light: B1 light
notes: as for B1
B11: GpH7-A5/GpH7-B3 variant D265_07I/GpL16-k0 (antibody, human IgG1, kappa)
heavy 1: not shown
heavy 2: not shown
light: B1 light
notes: as for B1
B12: GpH7-A5/GpH7-B3 variant P238_14T/GpL16-k0 (antibody, human IgG1, kappa)
heavy 1: not shown
heavy 2: not shown
light: B1 light
notes: as for B1
B13: GpH7-A5/GpH7-B3 variant P238_12R/GpL16-k0 (antibody, human IgG1, kappa)
heavy 1: not shown
heavy 2: not shown
light: B1 light
notes: as for B1
B14: GpH7-A5/GpH7-B3 variant S239_04F/GpL16-k0 (antibody, human IgG1, kappa)
heavy 1: not shown
heavy 2: not shown
light: B1 light
notes: as for B1
B15: GpH7-A5/GpH7-B3 variant G237_03V/GpL16-k0 (antibody, human IgG1, kappa)
heavy 1: not shown
heavy 2: not shown
light: B1 light
notes: as for B1
B16: GpH7-A5/GpH7-B3 variant D265_03V/GpL16-k0 (antibody, human IgG1, kappa)
heavy 1: not shown
heavy 2: not shown
light: B1 light
notes: as for B1
B17: GpH7-A5/GpH7-B3 variant S239_15Y/GpL16-k0 (antibody, human IgG1, kappa)
heavy 1: not shown
heavy 2: not shown
light: B1 light
notes: as for B1
B18: GpH7-A5/GpH7-B3 variant G237_16H/GpL16-k0 (antibody, human IgG1, kappa)
heavy 1: not shown
heavy 2: not shown
light: B1 light
notes: as for B1
B19: GpH7-A5/GpH7-B3 variant P238_11K/GpL16-k0 (antibody, human IgG1, kappa)
heavy 1: not shown
heavy 2: not shown
light: B1 light
notes: as for B1
B20: GpH7-A5/GpH7-B3 variant D265_08L/GpL16-k0 (antibody, human IgG1, kappa)
heavy 1: not shown
heavy 2: not shown
light: B1 light
notes: as for B1
B21: GpH7-A5/GpH7-B3 variant G236_15Y/GpL16-k0 (antibody, human IgG1, kappa)
heavy 1: not shown
heavy 2: not shown
light: B1 light
notes: as for B1
B22: GpH7-A5/GpH7-B3 variant P238_13S/GpL16-k0 (antibody, human IgG1, kappa)
heavy 1: not shown
heavy 2: not shown
light: B1 light
notes: as for B1
B23: GpH7-A5/GpH7-B3 variant S239_12R/GpL16-k0 (antibody, human IgG1, kappa)
heavy 1: not shown
heavy 2: not shown
light: B1 light
notes: as for B1
B24: GpH7-A5/GpH7-B3 variant G236_20W/GpL16-k0 (antibody, human IgG1, kappa)
heavy 1: not shown
heavy 2: not shown
light: B1 light
notes: as for B1
B25: GpH7-A5/GpH7-B3 variant P238_02A/GpL16-k0 (antibody, human IgG1, kappa)
heavy 1: not shown
heavy 2: not shown
light: B1 light
notes: as for B1
B26: GpH7-A5/GpH7-B3 variant G237_05P/GpL16-k0 (antibody, human IgG1, kappa)
heavy 1: not shown
heavy 2: not shown
light: B1 light
notes: as for B1
B27: GpH7-A5/GpH7-B3 variant S239_16H/GpL16-k0 (antibody, human IgG1, kappa)
heavy 1: not shown
heavy 2: not shown
light: B1 light
notes: Heterodimerized anti-glypican-3 IgG1; mutation only in the GpH7-B3 H chain; also called He Ab

Each binder was assayed against T1, FcγRIIa R (assay: SPR (Biacore T100); He/Con_2aR divided by He/Con_2b (FcγRIIa R over FcγRIIb)).
Protocol: (§1) The heterodimerized antibodies He Abs in which one of the H chains was introduced with an alteration were assayed for their binding activities to each activating FcγR and inhibitory FcγR according to the method described in Example 4. […] The activating FcγRs in FIGS. 26, 27, 28, and 29 are FcγRIa, FcγRIIa (R), FcγRIIa (H), and FcγRIIIa, respectively.
(§2) Analysis of interaction between objective antibody and the FcγR was carried out using Biacore T100 (GE Healthcare). HBS-EP+ (GE Healthcare) was used as the running buffer, and the measurement temperature was set to 25° C. Chips produced by immobilizing the antigen peptide by the amine coupling method to a Series S Sencor Chip CM5 (GE Healthcare), or alternatively, chips produced by allowing preliminarily biotinylated antigen peptides to interact with and immobilize onto a Series S Sensor Chip SA (certified) (GE Healthcare) were used. Antibodies of interest were captured onto an antigen peptide-immobilized chip, and allowed to interact to each FcγR diluted with running buffer. To regenerate and repeatedly use the chip, the antibodies captured on the chip were washed off by reacting 10 mM glycine-HCl, pH 1.5.

| Binder | He_2aR/2b (IIaR/IIb) |
| --- | --- |
| B1 | 1.34 ratio |
| B2 | 1.43 ratio |
| B3 | 1.49 ratio |
| B4 | 1.79 ratio |
| B5 | 1.59 ratio |
| B6 | 1.71 ratio |
| B7 | 1.26 ratio |
| B8 | 2.24 ratio |
| B9 | 1.96 ratio |
| B10 | 1.58 ratio |
| B11 | 2.57 ratio |
| B12 | 1.44 ratio |
| B13 | 1.57 ratio |
| B14 | 1.24 ratio |
| B15 | 1.52 ratio |
| B16 | 1.8 ratio |
| B17 | 1.21 ratio |
| B18 | 1.35 ratio |
| B19 | 2.03 ratio |
| B20 | 1.46 ratio |
| B21 | 1.48 ratio |
| B22 | 1.26 ratio |
| B23 | 1.38 ratio |
| B24 | 1.34 ratio |
| B25 | 1.31 ratio |
| B26 | 1.4 ratio |

These binders were tested against T4, FcγRIa extracellular domain with C-terminal His tag (human, UniProt P12314 16-292) (assay: SPR (Biacore), antibody captured, FcγR analyte; relative to GpH7-A5/GpH7-B3/GpL16-k0 = 100).
T4 construct: extracellular domain; also called FcgRI; CD64; not shown: His tag at the C terminus
T4 sequence (P12314 16-292): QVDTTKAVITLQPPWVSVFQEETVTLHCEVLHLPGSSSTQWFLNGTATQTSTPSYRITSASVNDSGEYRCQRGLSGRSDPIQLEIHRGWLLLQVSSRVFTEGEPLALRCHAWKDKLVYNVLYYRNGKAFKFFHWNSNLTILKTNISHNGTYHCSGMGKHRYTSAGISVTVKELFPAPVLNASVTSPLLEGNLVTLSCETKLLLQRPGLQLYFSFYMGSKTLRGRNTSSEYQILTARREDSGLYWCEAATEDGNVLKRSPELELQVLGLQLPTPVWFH

| Binder | He/Con_1a |
| --- | --- |
| B27 | 88.1 % of HeCon Ab |

The binders below were run against T2, FcγRIIb extracellular domain with … in the same assay as above.

| Binder | He/Con_2b |
| --- | --- |
| B27 | 49.4 % of HeCon Ab |

The binders below were run against T1, FcγRIIa R (assay: SPR (Biacore T100), antibody captured on antigen peptide chip, FcγR as analyte; binding relative to GpH7-A5/GpH7-B3/GpL16-k0 = 100).
Protocol: as §1, §2

| Binder | He/Con_2aR (IIaR binding) |
| --- | --- |
| B1 | 75 % of control |
| B2 | 78.6 % of control |
| B3 | 24.1 % of control |
| B4 | 5.6 % of control |
| B5 | 74.2 % of control |
| B6 | 33.9 % of control |
| B7 | 91.9 % of control |
| B8 | 62.7 % of control |
| B9 | 48.5 % of control |
| B10 | 15.8 % of control |
| B11 | 3.4 % of control |
| B12 | 73.1 % of control |
| B13 | 80.5 % of control |
| B14 | 54.8 % of control |
| B15 | 93 % of control |
| B16 | 5.8 % of control |
| B17 | 42.2 % of control |
| B18 | 74.5 % of control |
| B19 | 36.9 % of control |
| B20 | 6.6 % of control |
| B21 | 58.6 % of control |
| B22 | 88.9 % of control |
| B23 | 53.9 % of control |
| B24 | 77.9 % of control |
| B25 | 75.1 % of control |
| B26 | 34.5 % of control |

These binders were tested against T3, FcγRIIb in the same assay as above.
Protocol: as §1, §2

| Binder | He/Con_2b (IIb binding) |
| --- | --- |
| B1 | 56 % of control |
| B2 | 54.8 % of control |
| B3 | 16.1 % of control |
| B4 | 3.2 % of control |
| B5 | 46.6 % of control |
| B6 | 19.9 % of control |
| B7 | 73.2 % of control |
| B8 | 27.9 % of control |
| B9 | 24.7 % of control |
| B10 | 10 % of control |
| B11 | 1.3 % of control |
| B12 | 50.7 % of control |
| B13 | 51.4 % of control |
| B14 | 44.1 % of control |
| B15 | 61.4 % of control |
| B16 | 3.2 % of control |
| B17 | 34.9 % of control |
| B18 | 55.2 % of control |
| B19 | 18.1 % of control |
| B20 | 4.6 % of control |
| B21 | 39.5 % of control |
| B22 | 70.4 % of control |
| B23 | 39.1 % of control |
| B24 | 58.2 % of control |
| B25 | 57.4 % of control |
| B26 | 24.6 % of control |

These binders were tested against T4, FcγRIa extracellular domain with … (assay: SPR; He/Con_1a divided by He/Con_2b (FcγRIa against FcγRIIb)).

| Binder | He_1a/2b (Ia/IIb) |
| --- | --- |
| B27 | 1.78 ratio |
